Results from US20220143148A1, “COMPOSITIONS AND METHODS FOR MODULATING CGRP SIGNALING TO REGULATE INTESTINAL INNATE LYMPHOID CELLS” (The Broad Institute, Inc., priority 2019, published 2022).

Test system: small intestinal immune cells
Assay: Droplet-based scRNA-seq of small intestinal immune cells (LP and PP), OVA vs PBS, clustering and differential expression
Type: in vivo, mouse
Description: To comprehensively characterize small intestinal immune cells, Applicants generated scRNA-Seq profiles for 58,067 immune cells collected from lamina propria (LP) and Peyer's patch (PP) regions at steady state and after induction of a type 2 inflammatory reaction to ovalbumin (OVA) (Brandt et al., 2003) (FIGS. 1A and 8A). To ensure sufficient representation of rare cells, Applicants combined a normalization strategy—removing by flow sorting either a portion of IgD+ naïve B cells, which are the most abundant cell type in PPs, or all CD19+ and CD3+ T cells (FIG. 8B, Methods)—with profiling of a sufficiently large number of cells number (P>0.99 to recover at least 15 cells from each cluster, Methods) by massively parallel scRNA-seq (Haber et al., 2017) (Methods). Applicants obtained 36,797 and 21,270 high quality cells passing initial filtering (Methods) from PP and LP regions, respectively.
Overall, Applicants annotated 27 cell subsets across the two compartments, spanning T cells, B cells, ILCs, dendritic cells (DCs), myeloid cells and stromal cells, in frequencies ranging from 0.07% to 14%. Briefly, Applicants first partitioned the cells from the PP regions by unsupervised clustering (Methods) into 46 clusters, retained the 97% of cells that were robustly assigned cell identities in each cluster (Methods), assigned the cells from the LP regions to the 46 clusters using a classifier (Methods), and visualized the data with scvis (Ding et al., 2018), a deep generative model-based method (FIGS. 1B and 8C, Methods). Next, Applicants identified genes that were differentially expressed between the cells in each cluster and the remaining cells (Table 1, Methods), as well as between pairs of clusters (Table 2), to elucidate identities of similar cell types/states. Applicants excluded from downstream analysis clusters mostly consisting of contaminants from epithelium, likely doublets, or cells with a small number of Unique Molecular Identifiers (UMIs) (FIGS. 1C and 8D), or lacking distinct markers (Methods). Altogether, Applicants retained 27 clusters spanning 85% of the cells and each associated with distinct marker genes (FIG. 8E, Methods).
To induce allergic reaction to OVA, 6 to 7 weeks old mice were sensitized twice, two weeks apart, with 50 μg of OVA plus 1 mg of aluminum potassium sulfate adjuvant via intraperitoneal injection. Two weeks later, mice were orally administered with 50 mg of OVA on every other day for a total of five times. 1 μg of α-CGRP peptide was administered simultaneously when indicated. Mice were deprived of food for 3-4 hours in cages with wood chip bedding for limiting antigen degradation in the stomach before each intragastric challenge.
Isolation of cells from Peyer's patches (PPs). Peyer's patches (PPs) were carefully dissected from the small intestine under a stereo microscope using a fine scissor, pierced once with a fine forcep. Tissues were digested in freshly made digestion buffer (RPMI-1640 containing 100 μg/ml Liberase™ and 50 μg/ml DNase I at 37° C. on a roto-mixer. After 15 min, tissues were very gently mixed using a 1 ml pipette. The supernatant was collected and added to ice-cold MACS buffer (pH 7.4; PBS plus 2% FCS and 2 mM EDTA). Pre-warmed (37° C.) fresh digestion buffer was added to the remaining tissues. After rotation at 37° C. for 15 min, the mixture was vigorously mixed using a 1 ml pipette for 1 min. Supernatants from the two steps were combined and passed through 70 μm filters and stained for FACS (below).
Isolation of cells from the lamina propria (LP). The small intestines were opened longitudinally and washed in ice-cold PBS. For scRNA-seq, roughly 0.5 cm of fragments from each of the distal, middle and proximal regions without visible PPs were collected. Epithelial cells were dissociated by tissue rotation in pre-warmed (37° C.) PBS containing 10 mM EDTA at 37° C. for 15 min, followed by additional incubation on ice for 15 min. Tissues were then shaken vigorously. […]

B1: OVA (protein, UniProt P01012 2-386, looked up)
Ovalbumin: GSIGAASMEFCFDVFKELKVHHANENIFYCPIAIMSALAMVYLGAKDSTRTQINKVVRFDKLPGFGDSIEAQCGTSVNVHSSLRDILNQITKPNDVYSFSLASRLYAEERYPILPEYLQCVKELYRGGLEPINFQTAADQARELINSWVESQTNGIIRNVLQPSSVDSQTAMVLVNAIVFKGLWEKAFKDEDTQAMPFRVTEQESKPVQMMYQIGLFRVASMASEKMKILELPFASGTMSMLVLLPDEVSGLEQLESIINFEKLTEWTSSNVMEERKIKVYLPRMKMEEKYNLTSVLMAMGITDVFSSSANLSGISSAESLKISQAVHAAHAEINEAGREVVGSAEAGVDAASVSEEFRADHPFLFCIKHIATNAVLFFGRCVSP
- Txnip: LN (average fold change) (cluster ID 5, PP, OVA vs PBS): 0.660
- Uba52: LN (average fold change) (cluster ID 5, PP, OVA vs PBS): 0.277
- Ucp2: LN (average fold change) (cluster ID 5, PP, OVA vs PBS): 0.325
- Wdr89: LN (average fold change) (cluster ID 5, PP, OVA vs PBS): 0.291
- Zfp36l2: LN (average fold change) (cluster ID 5, PP, OVA vs PBS): 0.865
- AY036118: percentage of expressing cells in OVA-treated group (cluster ID 6, PP): 0.426
- Atf3: percentage of expressing cells in OVA-treated group (cluster ID 6, PP): 0.091
- Atp5h: percentage of expressing cells in OVA-treated group (cluster ID 6, PP): 0.963
- B3gnt8: percentage of expressing cells in OVA-treated group (cluster ID 6, PP): 0.486
- Bcl2l11: percentage of expressing cells in OVA-treated group (cluster ID 6, PP): 0.257
- Bhlhe40: percentage of expressing cells in OVA-treated group (cluster ID 6, PP): 0.465
- Bloc1s2: percentage of expressing cells in OVA-treated group (cluster ID 6, PP): 0.784
- Btg2: percentage of expressing cells in OVA-treated group (cluster ID 6, PP): 0.801
- Ccl4: percentage of expressing cells in OVA-treated group (cluster ID 6, PP): 0.848
- Cd68: percentage of expressing cells in OVA-treated group (cluster ID 6, PP): 0.861
- Cd83: percentage of expressing cells in OVA-treated group (cluster ID 6, PP): 0.092
- Cdv3: percentage of expressing cells in OVA-treated group (cluster ID 6, PP): 0.414
- Clcn3: percentage of expressing cells in OVA-treated group (cluster ID 6, PP): 0.35
- Clec10a: percentage of expressing cells in OVA-treated group (cluster ID 6, PP): 0.532
- Clec2d: percentage of expressing cells in OVA-treated group (cluster ID 6, PP): 0.578
- Coq10b: percentage of expressing cells in OVA-treated group (cluster ID 6, PP): 0.242
- Crem: percentage of expressing cells in OVA-treated group (cluster ID 6, PP): 0.34
- Cxcr3: percentage of expressing cells in OVA-treated group (cluster ID 6, PP): 0.516
- Cxcr4: percentage of expressing cells in OVA-treated group (cluster ID 6, PP): 0.561
- D13Ertd608e: percentage of expressing cells in OVA-treated group (cluster ID 6, PP): 0.947
- Ddit4: percentage of expressing cells in OVA-treated group (cluster ID 6, PP): 0.221
- Ddx3x: percentage of expressing cells in OVA-treated group (cluster ID 6, PP): 0.436
- Defa24: percentage of expressing cells in OVA-treated group (cluster ID 6, PP): 0.099
- Dnajc7: percentage of expressing cells in OVA-treated group (cluster ID 6, PP): 0.987
- Dusp1: percentage of expressing cells in OVA-treated group (cluster ID 6, PP): 0.406
- Dusp5: percentage of expressing cells in OVA-treated group (cluster ID 6, PP): 0.668
- Dusp18: percentage of expressing cells in OVA-treated group (cluster ID 6, PP): 0.091
- Egr1: percentage of expressing cells in OVA-treated group (cluster ID 6, PP): 0.143
- Emp3: percentage of expressing cells in OVA-treated group (cluster ID 6, PP): 0.936
- Erdr1: percentage of expressing cells in OVA-treated group (cluster ID 6, PP): 0.149
- Fabp2: percentage of expressing cells in OVA-treated group (cluster ID 6, PP): 0.048
- Fam46c: percentage of expressing cells in OVA-treated group (cluster ID 6, PP): 0.221
- Filip1l: percentage of expressing cells in OVA-treated group (cluster ID 6, PP): 0.384
- Fkbp5: percentage of expressing cells in OVA-treated group (cluster ID 6, PP): 0.161
- Fosb: percentage of expressing cells in OVA-treated group (cluster ID 6, PP): 0.332
- Fosl2: percentage of expressing cells in OVA-treated group (cluster ID 6, PP): 0.141
- Foxp1: percentage of expressing cells in OVA-treated group (cluster ID 6, PP): 0.719
- Fyn: percentage of expressing cells in OVA-treated group (cluster ID 6, PP): 0.756
- Gapdh: percentage of expressing cells in OVA-treated group (cluster ID 6, PP): 0.911
- Gapt: percentage of expressing cells in OVA-treated group (cluster ID 6, PP): 0.657
- Gnb1: percentage of expressing cells in OVA-treated group (cluster ID 6, PP): 0.515
- Grasp: percentage of expressing cells in OVA-treated group (cluster ID 6, PP): 0.193
- Gtf2i: percentage of expressing cells in OVA-treated group (cluster ID 6, PP): 0.542
- H2-Aa: percentage of expressing cells in OVA-treated group (cluster ID 6, PP): 0.947
- H2-Ab1: percentage of expressing cells in OVA-treated group (cluster ID 6, PP): 0.949
- H2-Eb1: percentage of expressing cells in OVA-treated group (cluster ID 6, PP): 0.907
- H2afj: percentage of expressing cells in OVA-treated group (cluster ID 6, PP): 0.935
- Hes6: percentage of expressing cells in OVA-treated group (cluster ID 6, PP): 0.474
- Hist1h1c: percentage of expressing cells in OVA-treated group (cluster ID 6, PP): 0.522
- Hist2h4: percentage of expressing cells in OVA-treated group (cluster ID 6, PP): 0.165
- Ier2: percentage of expressing cells in OVA-treated group (cluster ID 6, PP): 0.432
- Ier5: percentage of expressing cells in OVA-treated group (cluster ID 6, PP): 0.937
- Ifi30: percentage of expressing cells in OVA-treated group (cluster ID 6, PP): 0.883
- Ifrd1: percentage of expressing cells in OVA-treated group (cluster ID 6, PP): 0.241
- Igha: percentage of expressing cells in OVA-treated group (cluster ID 6, PP): 0.681
- Igkc: percentage of expressing cells in OVA-treated group (cluster ID 6, PP): 0.944
- Itpkb: percentage of expressing cells in OVA-treated group (cluster ID 6, PP): 0.296
- Jun: percentage of expressing cells in OVA-treated group (cluster ID 6, PP): 0.769
- Junb: percentage of expressing cells in OVA-treated group (cluster ID 6, PP): 0.745
- Jund: percentage of expressing cells in OVA-treated group (cluster ID 6, PP): 0.92
- Kdm6b: percentage of expressing cells in OVA-treated group (cluster ID 6, PP): 0.307
- Klf4: percentage of expressing cells in OVA-treated group (cluster ID 6, PP): 0.147
- Klk1: percentage of expressing cells in OVA-treated group (cluster ID 6, PP): 0.964
- Kmt2e: percentage of expressing cells in OVA-treated group (cluster ID 6, PP): 0.596
- Lag3: percentage of expressing cells in OVA-treated group (cluster ID 6, PP): 0.605
- Lgals1: percentage of expressing cells in OVA-treated group (cluster ID 6, PP): 0.985
- Lmnb1: percentage of expressing cells in OVA-treated group (cluster ID 6, PP): 0.189
- Ly6c1: percentage of expressing cells in OVA-treated group (cluster ID 6, PP): 0.991
- Lyz1: percentage of expressing cells in OVA-treated group (cluster ID 6, PP): 0.035
- Mcl1: percentage of expressing cells in OVA-treated group (cluster ID 6, PP): 0.459
